The experiment has as its target FLAG-EGFR incorporated into nanolipoprotein particles (EGFR-NLP) (not stated ("mammalian")) (UniProt P00533). The experiment in a line: BLI; competition with biotinylated EGF on sensor, 100 nM EGFR-NLP; given as EC50. (Biolayer interferometry detects binding as a change in optical thickness at a sensor tip.)

Broadly, the IC50 is the concentration that gives 50% inhibition. A low value points to higher potency. With cetuximab, the IC50 amounted to 5.87 nM.
